B1: TRIM63 (parent)
chain: FRCPTCRHEVIMDRHGVYGLQRNL

Variants of: B1
Experiment: protein stability index of a GFP-peptide fusion (GPS, HEK-293T) (PSI 1-6); higher = more stable
Settings: c terminus: a fixed tail appended
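Further: lentivirally expressed fusions sorted by FACS into six bins by GFP to DsRed ratio, PSI derived from sequencing read proportions per bin multiplied by bin number.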

Protein stability index: each site, then its substitutions
R7: Q 2.48, M 2.42, W 2.12, K 3.15, Y 1.94, H 2.46, T 2.35, D 3.28, G 3.57, C 2.24, L 2.13, A 2.63, F 2.42, N 3, P 2.36, V 2.93, E 2.09, S 2.24
C6: S 2.09, M 2.06, E 2.61, L 2.16, V 2.51, P 2.89, A 2.57, H 1.91, G 2.31, F 1.63, N 2.38, Q 2.73, D 2.62, K 2.15, T 2.97, I 1.89, W 1.77, R 2.27, Y 2.37
I11: G 3.3, Y 1.74, C 2.02, S 2.52, K 1.77, W 1.69, H 2.54, R 3.19, A 1.69, F 2.23, E 1.85, P 2.05, D 1.08, T 2.48, L 2.18, Q 1.61, N 2.82, V 1.88
H8: L 2.39, F 2.64, I 2.11, N 2.24, C 2.52, T 2.31, Q 1.91, E 1.81, P 3.14, R 1.89, M 3.58, D 1.77, A 2.6, S 1.96, Y 2.34, K 2.02, W 1.72
M12: S 3.59, R 2.11, Y 1.73, W 2.17, D 1.99, V 2.98, T 2.59, C 2.02, A 2.35, G 2.8, I 3.22, Q 2.29, L 2.66, E 2.19, P 1.62, F 2.18, H 2.06
T5: M 2.28, Q 1.64, R 1.77, V 3.27, S 1.82, L 1.72, Y 2.65, I 2.53, W 2.17, K 2.38, N 3.43
R14: H 1.71, L 2.05, M 1.91, P 2.05, G 2.01, E 3.1, D 2.5, I 1.96, C 1.63, N 2.16, A 1.99, K 2.07, F 1.7
V10: C 2.18, K 3.42, Q 1.8, H 1.59, F 2.25, A 2.65, T 2.62, D 2.9, W 2.16, P 1.76, G 2.58, S 3.91, N 3.46, I 2.51, R 2.41, M 1.74, Y 2.05, L 2.73, E 1.91
E9: D 1.79, I 1.43, H 2.63, R 1.47, M 2.06, Q 2.63, T 2.34, P 1.94, A 2.48, N 2.69, K 1.01, V 3.23, W 2.12, Y 1.86, L 2.99, F 2.14, C 2.56
D13: G 3.87, Q 3.89, I 2.07, C 2.18, P 2.15, V 1.32, N 1.04, W 2.09, T 1.9, S 2.13, A 2.42, M 2.79, K 1.76, Y 1.69, E 2.44, H 1.83, R 3, F 1.71
